The record followed here is patent publication US20260201033A1 (LTZ THERAPEUTICS, published 2026).

Experiment [1] addresses T1, Human C-type lectin domain family 5 member A (CLEC5A), endogenous on human monocytes and M0 macrophages (human, UniProt Q9NY25 1-188).
T1 construct: Endogenous CLEC5A on primary human monocytes and monocyte-derived M0 macrophages; also called MDL-1; M0 macrophages (CLEC5A+) cells
T1 sequence: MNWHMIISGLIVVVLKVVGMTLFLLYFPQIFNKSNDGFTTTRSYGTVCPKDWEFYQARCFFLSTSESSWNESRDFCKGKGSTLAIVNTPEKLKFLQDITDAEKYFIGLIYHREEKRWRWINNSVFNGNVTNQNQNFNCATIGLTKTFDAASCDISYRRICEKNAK
In words: flow cytometry on human M0 macrophages, anti-human IgG PE. (In flow cytometry, cells or beads pass a laser one at a time.)

In experiment [2] the target is T2, recombinant human CLEC5A, His Tag (ACROBiosystems, Cat #: NC1-H52H4) (human, UniProt Q9NY25 28-188).
T2 construct: Analyte of the BLI assay; Its catalogue number differs from that of the ELISA antigen; also called human CLEC5A (BLI analyte)
T2 sequence: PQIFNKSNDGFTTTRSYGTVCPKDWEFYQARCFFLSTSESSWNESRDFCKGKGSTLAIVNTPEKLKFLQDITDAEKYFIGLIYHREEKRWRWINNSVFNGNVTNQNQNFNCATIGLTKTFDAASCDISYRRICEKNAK
In words: BLI, antibody 10 ug/ml captured on anti-human IgG Fc probe, analyte hCLEC5a; table row hCLEC5a 0.78 nM; all four rows print the same value. For orientation: Biolayer interferometry detects binding as a change in optical thickness at a sensor tip.

Experiment [3] has as its target T3, Human CLEC5A His Tag protein (ACROBiosystems, Cat #: CLA-H5243) (human, UniProt Q9NY25 28-188, limits assumed).
T3 construct: Bought protein with a His tag; also called recombinant human CLEC5A protein
T3 sequence: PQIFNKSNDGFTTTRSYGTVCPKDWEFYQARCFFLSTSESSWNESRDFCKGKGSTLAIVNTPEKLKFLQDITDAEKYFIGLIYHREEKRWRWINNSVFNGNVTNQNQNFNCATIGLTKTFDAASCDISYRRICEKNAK
In words: ELISA, plate coated with human CLEC5A.

Experiment [4] has as its target T2, recombinant human CLEC5A, His Tag …. In words: BLI, antibody 10 ug/ml captured on anti-human IgG Fc probe, analyte hCLEC5a; table row hCLEC5a 3.12 nM; all four rows print the same value.
Experiment [5] has the same target. In words: BLI, antibody 10 ug/ml captured on anti-human IgG Fc probe, analyte hCLEC5a; table row hCLEC5a 6.25 nM; all four rows print the same value.
The target is the same in experiment [6]. In words: BLI, antibody 10 ug/ml captured on anti-human IgG Fc probe, analyte hCLEC5a; table row hCLEC5a 1.56 nM; all four rows print the same value.
Experiment [7] addresses T4, mouse CLEC5A (R&D Systems, Cat #: 8438-CL-050) (mouse, UniProt Q9R007 26-190, limits assumed).
T4 construct: Bought protein; also called recombinant mouse CLEC5A protein
T4 sequence: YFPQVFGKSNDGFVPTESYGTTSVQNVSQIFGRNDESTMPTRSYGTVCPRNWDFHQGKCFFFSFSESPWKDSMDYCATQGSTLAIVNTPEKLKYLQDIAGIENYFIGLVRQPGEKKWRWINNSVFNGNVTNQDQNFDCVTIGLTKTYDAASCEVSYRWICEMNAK
In words: ELISA, plate coated with mouse CLEC5A. For orientation: An ELISA detects its analyte on a solid surface through an enzyme-linked reagent.

Experiment [8] addresses T5, CD79b on Ramos cells and on endogenous B cells of human PBMCs (human, UniProt P40259 29-229).
T5 sequence (looked up): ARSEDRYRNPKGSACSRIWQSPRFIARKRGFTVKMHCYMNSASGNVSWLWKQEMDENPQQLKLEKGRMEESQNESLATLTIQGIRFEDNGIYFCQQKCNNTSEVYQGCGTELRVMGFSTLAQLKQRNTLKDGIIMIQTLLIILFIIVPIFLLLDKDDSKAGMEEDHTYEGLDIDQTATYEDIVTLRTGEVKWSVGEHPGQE
In words: cell-based or functional assay.

Experiment [9] addresses T5, CD79b on Ramos cells and on endogenous …. In words: flow cytometry on Ramos cells (CD79b+), anti-human IgG PE, MFI (PE).
Experiment [10] shares this target. In words: cell-based or functional assay. The source holds these as a separate data set.
For experiment [11] the target is unchanged. In words: cell-based or functional assay. This is another data set of the same source.
The target is the same in experiment [12]. In words: cell-based or functional assay. This is another data set of the same source.

B1: DX244, reference anti-CLEC5A antibody (antibody, human IgG1, V domains shown)
VH: QIQLVQSGPELKKPGETVKISCKASGYTFTIYAMNWVKQAPGKGLEWMGWINTDTGEPTYADDFKGRFAFSLETSASTAYLQINNLKNEDMATYFCARSSEVFYDYRFDYWGQGTALTVSS
VL: DIQMTQSPSSLSASLGERVSLTCRASQDIGSSLNWLQQEPDGTIKRLIYATSNLDSGVPKRFSGSRSGSDYSLTISSLESEDFVHYYCLQYASSPFTFGSGTKLEIKR
notes: also called benchmark DX244
Usually EC50 stands for the midpoint of the concentration-response curve. A low value points to an effect from little substance. B1 gave an EC50 in [1] of 2.8 nM. In other words, the single-digit nanomolar range.

B2: 6G9, chimeric rabbit/human IgG1 anti-CLEC5A antibody (Fc-silenced) (antibody, V domains shown)
VH: QSLEESGGDLVKPGASLTLTCTASGFSFTSNKYMCWVRQAPGKGPEWIACIYVGDGNTYYASWAKGRFTISKTSSTTVTLQMTSLTVADTATYFCARGGDYSIGGGGFASNLWGPGTLVTVSS
VL: AFELTQTPSSVEAAVGGTVTINCQASESISNFLAWYRQKPGQPPKLLIYRASTLASGVSSRFKGSGSGTEFTLTISDLEPADGASYYCQSYYGTSSTGHNVFGGGTEVVVK
notes: also called ch6G9
The molecule B2 gave a concentration for a half-maximal effect (EC50) in experiment [1] of 6.84 nM.

B3: 9E11, chimeric rabbit/human IgG1 anti-CLEC5A antibody (Fc-silenced) (antibody, V domains shown)
VH: QSLEESGGGLVQPEGSLTLTCTASGFDLNNYYYMCWVRQAPGKGLEWIACTHAGSSSSSYYARWAKGRFTISKTSSTTVTLQMTSLTAADTATYFCARHDRDYDDMDLWGPGTLVTVSS
VL: NIVMTQTTSPVSAVVGGTITINCQASQSIEYGYLSWYQQKPGQPPKLLIFYASKLASGVPSRFSGSGSGTQFTLTISGVQPDDAATYFCLYGYFDDYSGAAFGGGTEVVVK
notes: also called ch9E11
For the molecule B3, in experiment [1], the EC50 was 1.59 nM.

B4: 3A7, chimeric rabbit/human IgG1 anti-CLEC5A antibody (Fc-silenced) (antibody, V domains shown)
VH: QSLEESGGDLVKPGASLTLTCTASGFSFSGMYWICWVRQAPGKGLEWIACIYTGSSTTGYASWAKGRFTISKTSSTTVTLQMTSLTAADTATHFCASPYGDSSHYRGLNLWGPGTLVTVSS
VL: AVVMTQTPASVEAAVGGTVTINCQASQRINNYLSWFQQKPGQPPKLLIYGAATLASGVPSRFKGSGSGTEYTLTISDLEPADAATYYCQCTYGIPSSNYGFGGGTEVVVK
notes: also called ch3A7
As usually defined, the Kd is the equilibrium constant for the complex coming apart. A word on the koff: it is a measure of how fast the partners let go of each other. What is called kon is the second-order rate constant of association. Regarding B4, the Kd in experiment [2], in [4], in experiment [5] and in experiment [6] was 0.0631 nM in each case. Besides, the koff in experiment [2], in experiment [4], in experiment [5] and in [6] was 8.96e-05 s⁻¹ each time. Besides, the kon in experiment [2], in [4], in experiment [5] and in experiment [6] was 1.42e+06 M⁻¹ s⁻¹ each time. In addition, the EC50 in experiment [3] was determined as 0.71 nM; in experiment [1], 0.96 nM.

B5: 14A2, chimeric rabbit/human IgG1 anti-CLEC5A antibody (Fc-silenced) (antibody, V domains shown)
VH: QSLEESGGGLVKPEGSLTLTCKASGFTLSSYYYMCWVRQAPGKGLEWIACIYAGSSGTTVYASWAKGRFTISKTSSTTVTLQMTSLTAADTATYLCARKLGDVGYGHTTYFNLWGPGTLVTVSS
VL: ALVMTQTPSSVSAAVGGTVTIKCQASQNIYSTLAWYQQKPGQPPKLLMFDASDLASGVPSRFKGSGSGTEYTLTISDLEPADAATYFCQTYYDSGSDDLNAFGGGTEVVVK
notes: also called ch14A2
B5: the results for the EC50 in experiment [1] and in [7] were 3.99 nM and 0.184 nM, respectively.

B6: 6A5, chimeric rabbit/human IgG1 anti-CLEC5A antibody (Fc-silenced) (antibody, V domains shown)
VH: QQQLEESGGGLVKPGGTLTLTCTASGFSFSSSYYMCWVRQAPGKGLELIACIYSSSGRTWYATWVNGRFTISRSTSLNTVDLKMTSLTAADTATYFCARSYAGYGGYGYAYFNLWGPGTLVTVSS
VL: DIVMTQTPASVEAGVGGTVTIKCQASEDIYSSLAWYQQKAGQRPKLLIYDASTLASGVPSRFKGSGSGTEYTLTISGVQPDDAATYYCQNYYDSTGSGYGAAFGGGTEVVVK
notes: also called ch6A5
Take B6: the half-maximal effective concentration (EC50) was 0.31 nM in experiment [3], 9.8 nM in [1] and 0.12 nM in experiment [7].

B7: 7G10, chimeric rabbit/human IgG1 anti-CLEC5A antibody (Fc-silenced) (antibody, V domains shown)
VH: QQQLEESGGGLVKPGGTLTLTCKASGFSFSSGYDMCWVRQAPGKGLEWIACIYGGRSDNVYYARWAKGRFTISKTSSTTVTLQMTSLTAADTATYFCARDYLYRGYIGGGYGRSNLWGPGTLVTVSS
VL: DVVMTQTPASVSAAVGGTVTINCRASEDIENCLAWYQQKPGQPPKLLIYQASKLPSGVPSRFSGSGSGTEYTLTISDLEPDDGATYYCQNPDYMRNTDNLFGGGTEVVVK
notes: also called ch7G10
Regarding B7, the results for the EC50 in [3] and in experiment [1] were 0.16 nM and 2.06 nM, respectively.

B8: 13E6, chimeric rabbit/human IgG1 anti-CLEC5A antibody (Fc-silenced) (antibody, V domains shown)
VH: QSLEESGGDLVKPGGTLTLTCTASGFSFSSSYWLCWVRQAPGKGLEWIACIYGGSSRGTYYASWAKGRFTISKTSSTTVTLQMTSLTAADTATYFCASHTYTYPRFSPYFNLWGPGTLVSVSS
VL: AFEMTQTPASVSPAVGGTVSINCQASEDIESSLAWYQQKPGQPPKLLIYDASDLESGVPSRFKGSGSGTEYTLTISGVQPADAATYFCQSAYYTGSADNTFGGGTEVVVK
notes: also called ch13E6
Turning to B8, the EC50 in experiment [3] stood at 0.61 nM; in experiment [1], 2.57 nM.

B9: CD79b/5C7 (2+2 A) Fc-optimized (bispecific antibody, human IgG1, kappa)
heavy: EQQLVETGGGLIQPGGSLRLSCAASGFTINIDYWISWVRQAPGKGLEWIGIIDPGDGTTYFAIWVSGRFTISFDNSKNTVYLQMNSLRAEDTAVYFCVREFSASAYQYDLWGPGTLVTVSSASTKGPSVFPLAPSSKSTSGGTAALGCLVKDYFPEPVTVSWNSGALTSGVHTFPAVLQSSGLYSLSSVVTVPSSSLGTQTYICNVNHKPSNTKVDKKVEPKSCDKTHTCPPCPAPELLAGPSVFLFPPKPKDTLMISRTPEVTCVVVDVSHEDPEVKFNWYVDGVEVHNAKTKPREEQYNSTYRVVSVLTVLHQDWLNGKEYKCKVSNKALPLPEEKTISKAKGQPREPQVYTLPPSRDELTKNQVSLTCLVKGFYPSDIAVEWESNGQPENNYKTTPPVLDSDGSFFLYSKLTVDKSRWQQGNVFSCSVMHEALHNHYTQKSLSLSPGK
light: ELVMTQSPATLSVSPGERATLSCRASEDIENYLAWYQQKPGQPPRLLIYRASTLSSGVPARFSGSGSGTEFTLTISSLQSEDFAVYYCQQGYRNSNVDNPFGGGTKVEIKRTVAAPSVFIFPPSDEQLKSGTASVVCLLNNFYPREAKVQWKVDNALQSGNSQESVTEQDSKDSTYSLSSTLTLSKADYEKHKVYACEVTHQGLSSPVTKSFNRGECGGGGSGGGGSGGGGSDIQMTQSPSSLSASVGDRVTITCQASESVDRNNRLAWFQQKPGKPPKLLIYTTSTLASGVPSRFSGSGSGTDFTLTISSLQPEDVATYYCAGYRGAHTDGDAFGCGTKVEIKGGGGSGGGGSGGGGSGGGGSEQQLVESGGGLVKPGGSLRLSCAASGFSFSRSSYMCWVRQAPGKCLEWIGCLSVGDGHTYYASWAKGRFTISKDSAKNSVYLQMNSLRAEDTAVYFCARAPSYSGDGGHGYDLWGPGTLVTVSS
What is called EC50 (read off the curve) is the concentration needed to bring the measured effect to its halfway point. The low end stands for an effect from little substance, the high end for a need for much substance. As for B9, the “IC50 (nM), Ramos cell killing by PBMCs (test 2), Donor 234” value in [8] amounted to 0.0675 nM. Further, the “EC50 (read off the curve)” value in experiment [9] is roughly 0.9 nM. For the same molecule, in experiment [10], the “IC50 (nM), Ramos cell killing by M2 macrophages, Donor 100” value stood at 0.001 nM and the “IC50 (nM), Ramos cell killing by M2 macrophages, Donor 233” value was determined as 0.003 nM. Moreover, in [11], the “IC50 (nM), killing of endogenous B cells by PBMCs, Donor 234” value is 0.0154 nM. Further, in experiment [12], the “IC50 (nM), Ramos cell killing by M0 macrophages, Donor 100” value was found to be 0.002 nM; the “IC50 (nM), Ramos cell killing by M0 macrophages, Donor 159” value was determined as 0.001 nM; the “IC50 (nM), Ramos cell killing by M0 macrophages, Donor 161” value came out at 0.0013 nM; the “IC50 (nM), Ramos cell killing by M0 macrophages, Donor 233” value came to 0.002 nM.
